How the values were obtained:
[1] = biological target: VP4 spike protein, uncleaved (NTR spike), simian rotavirus A strain SA11 clone C4111 (simian rotavirus A strain SA11 (clone C4111)); assay: cryo-EM structure; purified NTR-TLP (made without trypsin, with leupeptin); single particle analysis with icosahedral symmetry, 3.40 Å; spike by localized reconstruction, 3D classification, optical flow (EnRICH) and LocSpiral
[2] = biological target: VP6 protein, rotavirus SA11 clone C4111 (simian rotavirus A strain SA11 (clone C4111)); assay: cryo-EM structure; purified TR-TLP (made in the presence of trypsin); single particle analysis with icosahedral symmetry, 3.48 Å; spike by localized reconstruction, 3D classification, optical flow (EnRICH) and LocSpiral
[3] = biological target: VP6 protein, rotavirus SA11 clone C4111 (simian rotavirus A strain SA11 (clone C4111)); assay: cryo-EM structure; purified NTR-TLP (made without trypsin, with leupeptin); single particle analysis with icosahedral symmetry, 3.40 Å; spike by localized reconstruction, 3D classification, optical flow (EnRICH) and LocSpiral
[4] = biological target: VP7 glycoprotein, rotavirus SA11 clone C4111 (simian rotavirus A strain SA11 (clone C4111)); assay: cryo-EM structure; purified TR-TLP (made in the presence of trypsin); single particle analysis with icosahedral symmetry, 3.48 Å; spike by localized reconstruction, 3D classification, optical flow (EnRICH) and LocSpiral
[5] = biological target: VP7 glycoprotein, rotavirus SA11 clone C4111 (simian rotavirus A strain SA11 (clone C4111)); assay: cryo-EM structure; purified NTR-TLP (made without trypsin, with leupeptin); single particle analysis with icosahedral symmetry, 3.40 Å; spike by localized reconstruction, 3D classification, optical flow (EnRICH) and LocSpiral

## VP4 spike protein, uncleaved (NTR spike), simian rotavirus A strain SA11 clone C4111 (natural protein)
[1]
  stoichiometry N: 3

## VP6 protein, rotavirus SA11 clone C4111 (natural protein)
[2]
  stoichiometry N: 3
[3]
  stoichiometry N: 3

## VP7 glycoprotein, rotavirus SA11 clone C4111 (natural protein)
[4]
  stoichiometry N: 3
[5]
  stoichiometry N: 3

Reference: doi:10.1101/2025.03.24.644915
